Here are results for seven molecules from US20230212267A1 (WISTAR INSTITUTE OF ANATOMY AND BIOLOGY, published 2023).

Experiment [1] has as its target recombinant SARS-CoV-2-RBD (Sino Biological) (SARS-CoV-2, UniProt P0DTC2 319-541).
The target in experiment [2] is SARS-CoV-2 Spike protein on pseudovirus (wild type) (SARS-CoV-2, UniProt P0DTC2 14-1273). The experiment in a line: cell-based or functional assay.
The target of experiment [3] is T1, recombinant SARS-CoV-2 receptor binding domain (RBD) (Examples 1 and 2) (SARS-CoV-2, UniProt P0DTC2 319-541).
T1 construct: also called SARS-CoV-2 RBD
The experiment in a line: ELISA, axis RBD Binding (OD450), D14 sera of mice given the S309 DMAb. (In an ELISA, binding on a coated surface is turned into a signal by an enzyme label.)

Experiment [4] addresses T2, recombinant SARS-CoV-2 S1 (Examples 1 and 2) (SARS-CoV-2, UniProt P0DTC2 16-685).
T2 construct: domain: Subunit 1 (S1); also called Subunit 1 (S1) domain; S1 domains
Nature of the experiment: ELISA with sera of DMAb-treated mice.

Experiment [5] addresses T1, recombinant SARS-CoV-2 receptor binding …. Nature of the experiment: ELISA, axis RBD Binding (OD450), serial dilutions of in vitro expressed DMAb.

B1: WCoVA7 (antibody, V domains shown)
VH: EVKLLESGGGLVQPGGSLKLSCAASGFDFSRYWMSWVRQAPGKGLEWIGEINPDSSTINYTPSLKDKFIISRDNAKNTLYLQMSKVRSEDTALYYCARIYYGSPGAMDYWGQGTSVTVSS
VL: SIVMTQTPKFLLVSAGDRVTITCKASQSVSNDVAWYQQKPGQSPKLLIYYASNRYTGVPDRFTGSGYGTDFTFTISTVQAEDLAVYFCQQDYFSPYTFGGGTKLEIK
For B1, in experiment [1], the Kd – broadly, the free concentration of one partner at which half of the binding sites on the other are occupied at equilibrium, for simple one-to-one binding – was found to be 0.28 nM; the dissociation rate constant (koff) – broadly, the rate constant with which the complex falls apart – turned out to be 9.3e-05 s⁻¹; the association rate constant (kon) (usually the rate constant with which the complex forms) is 330000 M⁻¹ s⁻¹; the t1/2 amounted to 2.07 h. In addition, the “IC50, pseudovirus neutralization (wild type virus)” value in experiment [2] came to 2.6 ng/mL.

B2: S309 SARS-CoV-2 DMAb (antibody, V domains shown)
VH: QVQLVQSGAEVKKPGASVKVSCKASGYTFTSYGISWVRQAPGQGLEWMGWISAYNGNTNYAQKLQGRVTMTTDTSTSTAYMELRSLRSDDTAVYYCARDYTRGAWFGESLIGGFDNWGQGTLVTVSA
VL: EIVLTQSPGTLSLSPGERATLSCRASQSVSSSYLAWYQQKPGQAPRLLIYGASSRATGIPDRFSGSGSGTDFTLTISRLEPEDFAVYYCQQHDTSLTFGQGTKVEIKR
notes: also called S309 DMAb
Turning to B2, the binding result in experiment [3] is “binds”.

B3: 2381 DMAb (antibody)
heavy: not shown
light: EVVLTQSPGTLSLSPGERATLSCRASQSVSSSYLAWYQQKPGQAPRLLIYGASSRATGIPDRFSGSGSGTDFTLTISRLEPEDFAVYHCQHFGSSSQWTFGQGTKVEIKRTVAAPSVFIFPPSDEQLKSGTASVVCLLNNFYPREAKVQWKVDNALQSGNSQESVTEQDSKDSTYSLSNTLTLSKADYEKHKVYACEVTHQGLSSPVTKSFNRGEC
With B3, the binding result in experiment [4] is listed as “binds”.

B4: 2381 (G) (antibody)
heavy: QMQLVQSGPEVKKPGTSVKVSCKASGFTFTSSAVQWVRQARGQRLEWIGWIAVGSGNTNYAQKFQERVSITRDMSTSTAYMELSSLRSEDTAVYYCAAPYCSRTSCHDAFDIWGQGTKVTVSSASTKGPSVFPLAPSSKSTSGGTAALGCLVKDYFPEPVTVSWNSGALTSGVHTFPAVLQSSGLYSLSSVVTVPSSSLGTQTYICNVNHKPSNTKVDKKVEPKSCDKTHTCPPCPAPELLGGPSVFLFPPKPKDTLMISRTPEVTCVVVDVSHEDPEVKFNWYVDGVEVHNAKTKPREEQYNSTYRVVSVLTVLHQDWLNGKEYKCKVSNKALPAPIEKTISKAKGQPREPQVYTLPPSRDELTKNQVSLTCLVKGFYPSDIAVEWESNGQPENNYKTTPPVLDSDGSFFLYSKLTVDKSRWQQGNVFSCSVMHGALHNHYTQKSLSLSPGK
light: B3 light
Turning to B4, the binding result in experiment [5] is reported as “binds”.

B5: 2381 (GK) (antibody)
heavy: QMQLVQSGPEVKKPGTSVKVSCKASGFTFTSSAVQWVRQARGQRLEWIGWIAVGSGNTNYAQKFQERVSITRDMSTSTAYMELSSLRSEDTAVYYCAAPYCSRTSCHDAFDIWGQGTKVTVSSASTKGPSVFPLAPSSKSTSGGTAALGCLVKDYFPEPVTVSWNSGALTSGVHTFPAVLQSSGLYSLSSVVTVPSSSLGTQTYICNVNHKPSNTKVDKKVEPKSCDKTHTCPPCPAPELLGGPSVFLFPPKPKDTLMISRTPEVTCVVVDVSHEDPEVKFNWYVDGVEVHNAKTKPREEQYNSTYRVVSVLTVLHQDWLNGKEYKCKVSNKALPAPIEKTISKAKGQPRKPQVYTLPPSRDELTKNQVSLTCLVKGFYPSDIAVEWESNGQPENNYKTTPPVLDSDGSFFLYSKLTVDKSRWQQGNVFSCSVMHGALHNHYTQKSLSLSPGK
light: B3 light
On to B5, for which, in experiment [5], the binding result is “binds”.

B6: 2196 DMAb (antibody, V domains shown)
VH: QMQLVQSGPEVKKPGTSVKVSCKASGFTFTSSAVQWVRQARGQRLEWIGWIAVGSGNTNYAQKFQERVSITRDMSTSTAYMELSSLRSEDTAVYYCAAPYCSSISCNDGFDIWGQGTKVTVSS
VL: EVVLTQSPGTLSLSPGERATLSCRASQSVSSSYLAWYQQKPGQAPRLLIYGASSRATGIPDRFSGSGSGTDFTLTISRLEPEDFAVYHCQHYGSSSQWTFGQGTKVEIKR
notes: also called 2196 WT DMAb
For B6, the binding result in experiment [4] and in experiment [5] was “binds” in each case.

B7: WCoVA9 (antibody, V domains shown)
VH: EVQLQQSGAELVKPGASVKLSCTASGFNIKDTYMHWVKQRPEQGLEWIGRIDPANGNTKYDPKFQAKATITANTSSNTAYLHLSSLTSEDTAVYYCAPYYDYVGAMDYWGQGTSVTVSS
VL: DIQMTQSPASQSASLGESVTITCLASQTIGTWLAWYQQKPGKSPQLLIYAATSLADGVPSRFSGSGSGTKFSFKISSLQAEDFVSYYCQQLYNTPLTFGGGTKLEIK
Turning to B7, in experiment [1], the dissociation constant Kd was 0.042 nM, the koff came to 1.9e-05 s⁻¹, the kon came out at 470000 M⁻¹ s⁻¹ and the t1/2 was found to be 10.1 h. In experiment [2], the “IC50, pseudovirus neutralization (wild type virus)” value was 4.9 ng/mL.
